Consider 34 sequences from the supplement of paper PMC10724198.

± gives the standard deviation of the averaged measurements.

The data set relates to Saccharomyces cerevisiae. Put plainly: protein stability index of tFT-peptide fusion (C-terminal peptide) (PSI (0-1 scale)); higher = more stable (slower turnover). Conditions: temperature: 30 C. On the procedure:
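MPS profiling in S. cerevisiae of the yeast C-terminome library: the last 12 aa of each annotated ORF are fused to the C-terminus of a sfGFP-mCherry timer, after a GGGS linker. Cells are FACS-sorted into 8 mCherry/sfGFP bins and deep-sequenced. PSI runs from 0 (unstable) to 1 (stable); wild type and das1Δ backgrounds, two technical replicates each.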

Where [1] appears, read: genetic background: das1 deletion.

CNNVLYIRELPN [SMX3 C-terminal 12 aa] registered a protein stability index under setting [1] of 0.689 ± 0.016 and a protein stability index (genetic background: wild type) of 0.6801 ± 0.0029.

In the case of CPSVEEIANETE [GCV2 C-terminal 12 aa], the protein stability index stood at 0.696 ± 0.013 under setting [1] and 0.653 ± 0.0098 (genetic background: wild type).

Consider “CVAGAHFESLLD [YNL144W-A C-terminal 12 aa]”, for which the protein stability index worked out at 0.702 ± 0.0074 under setting [1] and 0.744 ± 0.03 (genetic background: wild type).

For CVVGTLGSDLKS [YPR150W C-terminal 12 aa], the protein stability index by setting is: under setting [1], 0.7093 ± 0.0042; (genetic background: wild type) 0.697 ± 0.014.

As for DAEGQENAASSE [RIM1 C-terminal 12 aa], the protein stability index under setting [1] turned out to be 0.67571 ± 0.00047 and the protein stability index (genetic background: wild type) is 0.67 ± 0.0069.

DATSTLSSQPLD [MSP1 C-terminal 12 aa]: the protein stability index by setting is: under setting [1], 0.7244 ± 0.0059; (genetic background: wild type) 0.695 ± 0.037.

With DCGWVSDAYKNH [LCL2 C-terminal 12 aa], the protein stability index came to 0.735 ± 0.019 under setting [1] and 0.724 ± 0.043 (genetic background: wild type).

On to DDDEEDEIVEVA [HGH1 C-terminal 12 aa], for which the protein stability index reads like this: under setting [1], 0.698 ± 0.033; (genetic background: wild type) 0.6572 ± 0.0019.

In turn, DDDGDYFEHDEL [KAR2 C-terminal 12 aa] had a protein stability index under setting [1] of 0.688 ± 0.017 and a protein stability index (genetic background: wild type) of 0.6679 ± 0.00099.

For the sequence DDGDSDSWDTNW [CEX1 C-terminal 12 aa], the protein stability index by setting is: under setting [1], 0.701 ± 0.024; (genetic background: wild type) 0.702 ± 0.014.

For DDQDAISNQEKK [EIS1 C-terminal 12 aa], the protein stability index is, setting by setting: under setting [1], 0.712 ± 0.057; (genetic background: wild type) 0.701 ± 0.038.

With DDRPIYKRFFSS [HXT9 C-terminal 12 aa], the protein stability index was found to be 0.7117 ± 0.0052 under setting [1] and 0.654 ± 0.023 (genetic background: wild type).

As to DEDDGMIIGSLW [AEP2 C-terminal 12 aa], the protein stability index by setting is: under setting [1], 0.7004 ± 0.0057; (genetic background: wild type) 0.708 ± 0.013.

On to DEELHPLSDEGM [DPP1 C-terminal 12 aa], for which the protein stability index runs as follows: under setting [1], 0.691 ± 0.011; (genetic background: wild type) 0.726 ± 0.061.

Sequence DEEREDDNYVPQ [CBC2 C-terminal 12 aa] returned a protein stability index under setting [1] of 0.689 ± 0.028 and a protein stability index (genetic background: wild type) of 0.671 ± 0.022.

As for DEKVKKMVENLQ [TRS23 C-terminal 12 aa], the protein stability index runs as follows: under setting [1], 0.7295 ± 0.0065; (genetic background: wild type) 0.738 ± 0.077.

With “DFLTLVQTNSDT [YPL250W-A C-terminal 12 aa]”, the protein stability index by setting is: under setting [1], 0.712 ± 0.0071; (genetic background: wild type) 0.722 ± 0.038.

Regarding DFNSKSKKKNDK [MIN6 C-terminal 12 aa], the protein stability index runs as follows: under setting [1], 0.697 ± 0.024; (genetic background: wild type) 0.6535 ± 0.0044.

Take DGPGLNNFGITL [BMT2 C-terminal 12 aa]: the protein stability index was found to be 0.6975 ± 0.00032 under setting [1] and 0.699 ± 0.035 (genetic background: wild type).

With DIEINDDLNGVL [VPS41 C-terminal 12 aa], the protein stability index came to 0.653 ± 0.016 under setting [1] and 0.708 ± 0.053 (genetic background: wild type).

Turning to DIFEDSSDEEQS [SPL2 C-terminal 12 aa], the protein stability index under setting [1] was found to be 0.7179 ± 0.00076 and the protein stability index (genetic background: wild type) came to 0.727 ± 0.084.

DKHEQPQIESPK [CFD1 C-terminal 12 aa]: the protein stability index came to 0.7 ± 0.026 under setting [1] and 0.684 ± 0.021 (genetic background: wild type).

In turn, DKKLEEQLRDLV [MTC3 C-terminal 12 aa] came in with a protein stability index under setting [1] of 0.6866 ± 0.0029 and a protein stability index (genetic background: wild type) of 0.689 ± 0.052.

DKSTFGLSPVKI [GRS2 C-terminal 12 aa] displayed a protein stability index under setting [1] of 0.691 ± 0.033 and a protein stability index (genetic background: wild type) of 0.666 ± 0.0084.

The sequence DLDFLGSDIEFE [HFM1 C-terminal 12 aa] came in with a protein stability index under setting [1] of 0.718 ± 0.016 and a protein stability index (genetic background: wild type) of 0.7077 ± 0.002.

For DLESLTAKLIQG [HCA4 C-terminal 12 aa], the protein stability index was determined as 0.7 ± 0.022 under setting [1] and 0.67282 ± 0.00041 (genetic background: wild type).

In the case of DLIDDKTNRGRR [PRP2 C-terminal 12 aa], the protein stability index amounted to 0.696 ± 0.029 under setting [1] and 0.697 ± 0.023 (genetic background: wild type).

On to DLIKEHSKDIQV [HCH1 C-terminal 12 aa], for which the protein stability index by setting is: under setting [1], 0.6872 ± 0.0016; (genetic background: wild type) 0.691 ± 0.012.

Consider DMEMEAIAAERD [HMF1 C-terminal 12 aa], for which the protein stability index is 0.714 ± 0.03 under setting [1] and 0.706 ± 0.031 (genetic background: wild type).

Take DNLKYSLDCDFS [BGL2 C-terminal 12 aa]: the protein stability index came to 0.709 ± 0.023 under setting [1] and 0.666 ± 0.0075 (genetic background: wild type).

Consider DNRPIYKRFFSS [HXT11 C-terminal 12 aa], for which the protein stability index under setting [1] was 0.7072 ± 0.0066 and the protein stability index (genetic background: wild type) is 0.511 ± 0.018.

For DNTKESKDVKMN [RTT102 C-terminal 12 aa], the protein stability index was 0.6878 ± 0.004 under setting [1] and 0.673 ± 0.081 (genetic background: wild type).

For the sequence DNTTKHSSNVHT [YER079W C-terminal 12 aa], the protein stability index was found to be 0.668 ± 0.014 under setting [1] and 0.667 ± 0.0093 (genetic background: wild type).

With DNVEQRVLKQYM [EMC3 C-terminal 12 aa], the protein stability index is 0.6864 ± 0.0062 under setting [1] and 0.651 ± 0.0092 (genetic background: wild type).
